Fewer inactive variants are shown than the library holds.
Legend:
biotinyl-Val-oxazolone = experiment: self-aminoacylation, catalytic enhancement (BVO) (fold over background); higher = more active; k-Seq, kA / k0A0; sequences stand for … in GGGAAUGGAUCCACAUCUACGAAUUC…UUCACUGCAGACUUGACGAAGCUG
Method in brief: (§1)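 The uncatalyzed rate is the low-activity peak of a bimodal Gaussian fit, and catalytic enhancement is median kA divided by it. The kA values came from pseudo-first-order fits, with 1000 bootstraps, of per-sequence fraction reacted measured by streptavidin capture, triplicate qPCR and Illumina sequencing. Mutagenized RNA pools with a 21-nt variable region (0.43 μM) were reacted with each biotinyl-aminoacyl-oxazolone at 2–1250 μM in 50 μL HEPES/NaCl/KCl/MgCl2/CaCl2 buffer with 5% acetonitrile, pH 6.9–7.0, for 90 minutes at room temperature.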

biotinyl-Phe-oxazolone = experiment: self-aminoacylation, catalytic enhancement (BFO) (fold over background); higher = more active; k-Seq, kA / k0A0; sequences stand for … in GGGAAUGGAUCCACAUCUACGAAUUC…UUCACUGCAGACUUGACGAAGCUG
Method in brief: as §1

biotinyl-Ile-oxazolone = experiment: self-aminoacylation, catalytic enhancement (BIO) (fold over background); higher = more active; k-Seq, kA / k0A0; sequences stand for … in GGGAAUGGAUCCACAUCUACGAAUUC…UUCACUGCAGACUUGACGAAGCUG
Method in brief: as §1

biotinyl-Met-oxazolone = experiment: self-aminoacylation, catalytic enhancement (BMO) (fold over background); higher = more active; k-Seq, kA / k0A0; sequences stand for … in GGGAAUGGAUCCACAUCUACGAAUUC…UUCACUGCAGACUUGACGAAGCUG
Method in brief: as §1

biotinyl-Leu-oxazolone = experiment: self-aminoacylation, catalytic enhancement (BLO) (fold over background); higher = more active; k-Seq, kA / k0A0; sequences stand for … in GGGAAUGGAUCCACAUCUACGAAUUC…UUCACUGCAGACUUGACGAAGCUG
Method in brief: as §1

biotinyl-Trp-oxazolone = experiment: self-aminoacylation, catalytic enhancement (BWO) (fold over background); higher = more active; k-Seq, kA / k0A0; sequences stand for … in GGGAAUGGAUCCACAUCUACGAAUUC…UUCACUGCAGACUUGACGAAGCUG
Method in brief: as §1

Row | Sequence | self-aminoacylation (biotinyl-Val-oxazolone) | self-aminoacylation (biotinyl-Phe-oxazolone) | self-aminoacylation (biotinyl-Ile-oxazolone) | self-aminoacylation (biotinyl-Met-oxazolone) | self-aminoacylation (biotinyl-Leu-oxazolone) | self-aminoacylation (biotinyl-Trp-oxazolone)
1 | AAGUUUGCUCAUAGUGGCAAG [Fam3.1 aminoacylation ribozyme variant] | 0.774 | 1.2 | 0.71 | 0.618 | 0.526 | 0.785
2 | AAGUUUGCUGAGAGUCGCAAG [Fam3.1 aminoacylation ribozyme variant] | 0.873 | 1.91 | 0.969 | 1.01 | 1.03 | 1.18
3 | AAGUUUGCUGAUAAUCGCAAG [Fam3.1 aminoacylation ribozyme variant] | 0.754 | 1.05 | 0.707 | 0.716 | 0.586 | 0.682
4 | AAGUUUGCUGAUAGUCGCAAA [Fam3.1 aminoacylation ribozyme variant] | 1.55 | 3.33 | 1.71 | 1.38 | 1.6 | 1.19
5 | AAGUUUGCUGAUAGUCGCGAG [Fam3.1 aminoacylation ribozyme variant] | 1.61 | 6.95 | 1.75 | 1.72 | 2.43 | 1.81
6 | AAGUUUGCUGAUAGUCGCUAG [Fam3.1 aminoacylation ribozyme variant] | 1.26 | 1.86 | 1.14 | 1.31 | 1.08 | 1.11
7 | AAGUUUGCUGCUAGUCGCAAG [Fam3.1 aminoacylation ribozyme variant] | 1.31 | 2.64 | 1.21 | 1.57 | 1.3 | 1.19
8 | AAGUUUGCUGUUAGUCGCAAG [Fam3.1 aminoacylation ribozyme variant] | 0.855 | 0.937 | 0.911 | 0.895 | 0.912 | 1.37
9 | AAGUUUGCUUAUACUCGCAAG [Fam3.1 aminoacylation ribozyme variant] | 0.814 | 0.761 | 0.779 | 0.863 | 0.66 | 0.554
10 | AAGUUUGCUUAUAGACGCAAG [Fam3.1 aminoacylation ribozyme variant] | 0.585 | 0.84 | 0.591 | 0.559 | 0.495 | 0.629
11 | AAGUUUGCUUAUAGUAGCAAG [Fam3.1 aminoacylation ribozyme variant] | 1.12 | 1.56 | 1.04 | 1.06 | 1.08 | 0.878
12 | AAGUUUGCUUAUAGUCGCAAG [Fam3.1 aminoacylation ribozyme variant] | 0.862 | 1.13 | 0.849 | 0.801 | 0.768 | 0.847
13 | AAGUUUGCUUAUAGUCGCAAU [Fam3.1 aminoacylation ribozyme variant] | 1.22 | 1.74 | 1.1 | 1.41 | 1.27 | 1.03
14 | AAGUUUGCUUAUUGUCGCAAG [Fam3.1 aminoacylation ribozyme variant] | 0.713 | 0.903 | 0.771 | 0.641 | 0.686 | 0.97
15 | AAGUUUGGUAACAGUCGCAAG [Fam3.1 aminoacylation ribozyme variant] | 0.987 | 1.24 | 1.07 | 0.994 | 0.857 | 0.693
16 | AAGUUUGGUAAUAGCCGCAAG [Fam3.1 aminoacylation ribozyme variant] | 1.01 | 1.19 | 1.27 | 1.39 | 1.15 | 1.42
17 | AAGUUUGGUAAUAGUCGCAAU [Fam3.1 aminoacylation ribozyme variant] | 1.62 | 3.13 | 2.02 | 1.65 | 1.8 | 2.14
18 | AAGUUUGGUAAUCGUCGCAAG [Fam3.1 aminoacylation ribozyme variant] | 1.32 | 1.07 | 1.39 | 1.49 | 1.33 | 1.52
19 | AAGUUUGGUAUUAGUCGCAAG [Fam3.1 aminoacylation ribozyme variant] | 1.47 | 2.44 | 1.65 | 1.51 | 1.5 | 1.74
20 | AAGUUUGUUAACAGUCGCAAG [Fam3.1 aminoacylation ribozyme variant] | 0.996 | 1.11 | 1.09 | 0.806 | 1.03 | 0.988
21 | AAGUUUGUUAAUAGACGCAAG [Fam3.1 aminoacylation ribozyme variant] | 0.536 | 0.803 | 0.583 | 0.587 | 0.399 | 0.609
22 | AAGUUUGUUAAUAUUCGCAAG [Fam3.1 aminoacylation ribozyme variant] | 1.43 | 1.17 | 1.55 | 1.15 | 1.45 | 1.41
23 | AAGUUUGUUAAUCGUCGCAAG [Fam3.1 aminoacylation ribozyme variant] | 1.22 | 1.05 | 1.21 | 1.35 | 1.15 | 1.04
24 | AAGUUUUAUAAUAGUCGCAAG [Fam3.1 aminoacylation ribozyme variant] | 1.64 | 3.02 | 1.72 | 1.77 | 1.61 | 1.99
25 | AAGUUUUCUAAUAGUCACAAG [Fam3.1 aminoacylation ribozyme variant] | 1.64 | 2.39 | 1.64 | 1.25 | 1.4 | 1.87
26 | AAGUUUUCUAAUAGUCCCAAG [Fam3.1 aminoacylation ribozyme variant] | 1.08 | 2.7 | 1.02 | 0.891 | 0.929 | 1.45

Reference: the supplement of paper PMC9233669
